According to article PMC9482650, “Quantitative fragmentomics allow affinity mapping of interactomes” (Nature Communications, 2022):

Assays:
Experiment in all cases: holdup assay
Set-up in all cases: key: below the threshold = too weak to quantify, mostly under pKd 3.1 to 4
NOS1, P29475 = biological target: NOS1, P29475
GRIP1_7, Q9Y3R0 = biological target: T1, GRIP1_7, Q9Y3R0
T1 sequence (Q9Y3R0 999-1096, limits assumed, looked up): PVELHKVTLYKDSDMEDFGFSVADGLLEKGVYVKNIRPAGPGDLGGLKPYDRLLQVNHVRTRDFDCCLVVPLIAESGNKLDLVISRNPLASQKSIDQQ

CASK, O14936 = biological target: CASK, O14936
Chain of CASK, O14936 (O14936 487-570): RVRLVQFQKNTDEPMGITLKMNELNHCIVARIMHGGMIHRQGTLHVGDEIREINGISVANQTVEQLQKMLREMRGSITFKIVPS

LIN7C, Q9NUP9 = biological target: T2, LIN7C, Q9NUP9
T2 sequence (Q9NUP9 88-185, limits assumed, looked up): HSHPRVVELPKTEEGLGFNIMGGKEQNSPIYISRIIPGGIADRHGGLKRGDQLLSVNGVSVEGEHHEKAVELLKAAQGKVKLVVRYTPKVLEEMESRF

LAP2, Q96RT1 = biological target: LAP2, Q96RT1
Chain of LAP2, Q96RT1 (Q96RT1 other isoform, or with tags, fused parts or gaps): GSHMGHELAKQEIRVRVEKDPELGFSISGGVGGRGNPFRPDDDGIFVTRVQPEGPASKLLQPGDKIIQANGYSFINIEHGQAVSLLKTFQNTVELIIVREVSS

FRMPD1, Q5SYB0 = biological target: T3, FRMPD1, Q5SYB0
T3 sequence (Q5SYB0 52-145, limits assumed, looked up): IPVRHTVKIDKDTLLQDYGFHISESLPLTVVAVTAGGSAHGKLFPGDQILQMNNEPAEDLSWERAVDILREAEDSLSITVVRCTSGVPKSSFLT

GOPC, Q9HD26 = biological target: GOPC, Q9HD26
APBA2_1, Q99767 = biological target: T4, APBA2_1, Q99767
T4 sequence (Q99767 563-664, limits assumed, looked up): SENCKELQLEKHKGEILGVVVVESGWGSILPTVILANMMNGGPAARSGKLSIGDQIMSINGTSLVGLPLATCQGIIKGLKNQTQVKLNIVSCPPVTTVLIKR

MAGI2_6, Q86UL8 = biological target: MAGI2_6, Q86UL8
Chain of MAGI2_6, Q86UL8 (Q86UL8 1141-1229): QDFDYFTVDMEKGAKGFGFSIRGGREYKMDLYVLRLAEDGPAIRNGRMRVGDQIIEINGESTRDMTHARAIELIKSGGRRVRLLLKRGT

SHANK1, Q9Y566 = biological target: T5, SHANK1, Q9Y566
T5 sequence (Q9Y566 658-767, limits assumed, looked up): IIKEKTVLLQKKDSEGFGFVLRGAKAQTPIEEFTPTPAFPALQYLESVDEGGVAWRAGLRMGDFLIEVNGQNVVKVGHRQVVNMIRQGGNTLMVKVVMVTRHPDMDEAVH

DVL3, Q92997 = biological target: T6, DVL3, Q92997
T6 sequence (Q92997 244-331, limits assumed, looked up): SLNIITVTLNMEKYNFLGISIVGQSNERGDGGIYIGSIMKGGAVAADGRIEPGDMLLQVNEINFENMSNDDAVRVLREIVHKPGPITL

SNTB1, Q13884 = biological target: T7, SNTB1, Q13884
T7 sequence (Q13884 107-205, limits assumed, looked up): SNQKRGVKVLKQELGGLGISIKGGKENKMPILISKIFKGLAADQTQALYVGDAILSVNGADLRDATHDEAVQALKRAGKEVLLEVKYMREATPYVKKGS

FRMPD2_2, Q68DX3 = biological target: FRMPD2_2, Q68DX3
Chain of FRMPD2_2, Q68DX3 (Q68DX3 944-1038): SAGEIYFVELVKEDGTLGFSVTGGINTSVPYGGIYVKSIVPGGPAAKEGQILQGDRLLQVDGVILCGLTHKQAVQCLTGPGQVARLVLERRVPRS

DLG1_3, Q12959 = biological target: DLG1_3, Q12959
Chain of DLG1_3, Q12959 (Q12959 457-571): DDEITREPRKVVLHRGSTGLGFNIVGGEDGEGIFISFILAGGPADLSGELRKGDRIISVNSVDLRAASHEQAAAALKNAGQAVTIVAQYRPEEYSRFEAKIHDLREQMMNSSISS

Inadl_1, Q8NI35 = biological target: Inadl_1, Q8NI35
Chain of Inadl_1, Q8NI35 (Q8NI35 113-229): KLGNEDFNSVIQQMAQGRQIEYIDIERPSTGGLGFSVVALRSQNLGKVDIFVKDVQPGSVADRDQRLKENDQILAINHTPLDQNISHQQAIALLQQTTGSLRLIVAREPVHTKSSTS

APBA1_2, Q02410 = biological target: T8, APBA1_2, Q02410
T8 sequence (Q02410 742-832, limits assumed, looked up): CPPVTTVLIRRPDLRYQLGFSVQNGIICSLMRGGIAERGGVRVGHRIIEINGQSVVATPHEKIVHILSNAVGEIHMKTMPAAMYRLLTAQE

LNX1_3, Q8TBB1 = biological target: LNX1_3, Q8TBB1
Chain of LNX1_3, Q8TBB1 (Q8TBB1 500-596): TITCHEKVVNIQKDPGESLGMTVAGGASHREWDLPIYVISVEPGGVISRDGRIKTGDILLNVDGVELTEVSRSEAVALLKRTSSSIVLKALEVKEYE

GORASP1, Q9BQQ3 = biological target: GORASP1, Q9BQQ3
Chain of GORASP1, Q9BQQ3 (Q9BQQ3 1-208): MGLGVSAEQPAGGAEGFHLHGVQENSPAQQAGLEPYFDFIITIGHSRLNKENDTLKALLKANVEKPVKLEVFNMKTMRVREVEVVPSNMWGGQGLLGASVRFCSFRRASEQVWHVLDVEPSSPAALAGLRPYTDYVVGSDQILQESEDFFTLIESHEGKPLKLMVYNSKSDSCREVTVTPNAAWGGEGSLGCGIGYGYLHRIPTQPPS

MAGI2_4, Q86UL8 = biological target: MAGI2_4, Q86UL8
Chain of MAGI2_4, Q86UL8 (Q86UL8 772-865): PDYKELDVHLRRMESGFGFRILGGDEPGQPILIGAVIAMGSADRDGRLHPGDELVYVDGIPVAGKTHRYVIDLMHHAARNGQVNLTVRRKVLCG

SCRIB_2, Q14160 = biological target: SCRIB_2, Q14160
Chain of SCRIB_2, Q14160 (Q14160 857-960): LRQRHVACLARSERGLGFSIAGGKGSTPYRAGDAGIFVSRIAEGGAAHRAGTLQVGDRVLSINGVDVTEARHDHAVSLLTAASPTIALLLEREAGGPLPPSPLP

MPDZ_5, O75970 = biological target: T9, MPDZ_5, O75970
T9 sequence (O75970 695-796, limits assumed, looked up): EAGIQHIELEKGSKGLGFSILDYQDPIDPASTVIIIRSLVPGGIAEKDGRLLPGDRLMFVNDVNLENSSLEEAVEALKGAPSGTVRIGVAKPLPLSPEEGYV

Inadl_5, Q8NI35 = biological target: Inadl_5, Q8NI35
Chain of Inadl_5, Q8NI35 (Q8NI35 673-780): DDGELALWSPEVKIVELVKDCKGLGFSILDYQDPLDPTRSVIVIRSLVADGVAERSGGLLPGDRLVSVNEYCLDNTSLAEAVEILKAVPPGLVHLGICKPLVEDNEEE

FRMPD2_3, Q68DX3 = biological target: FRMPD2_3, Q68DX3
Chain of FRMPD2_3, Q68DX3 (Q68DX3 1073-1166): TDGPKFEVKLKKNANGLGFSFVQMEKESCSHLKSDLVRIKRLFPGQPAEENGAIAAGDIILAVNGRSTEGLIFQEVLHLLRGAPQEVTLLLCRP

PDZD7_3, Q9H5P4 = biological target: T10, PDZD7_3, Q9H5P4
T10 sequence (Q9H5P4 857-944, limits assumed, looked up): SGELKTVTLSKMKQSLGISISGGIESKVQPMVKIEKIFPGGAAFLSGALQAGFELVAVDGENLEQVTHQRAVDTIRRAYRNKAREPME

FRMPD2_1, Q68DX3 = biological target: FRMPD2_1, Q68DX3
Chain of FRMPD2_1, Q68DX3 (Q68DX3 770-861): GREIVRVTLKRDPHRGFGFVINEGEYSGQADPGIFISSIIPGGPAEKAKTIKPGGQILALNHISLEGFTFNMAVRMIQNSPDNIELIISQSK

DLG4_3, P78352 = biological target: DLG4_3, P78352
Chain of DLG4_3, P78352 (P78352 306-403): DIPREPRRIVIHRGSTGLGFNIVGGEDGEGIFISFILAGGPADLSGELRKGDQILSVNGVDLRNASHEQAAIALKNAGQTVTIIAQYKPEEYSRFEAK

DLG3_3, Q92796 = biological target: T11, DLG3_3, Q92796
T11 sequence (Q92796 374-475, limits assumed, looked up): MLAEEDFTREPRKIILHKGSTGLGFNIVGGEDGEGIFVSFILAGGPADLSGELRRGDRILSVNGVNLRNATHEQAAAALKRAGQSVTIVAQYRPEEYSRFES

[1] = plain residues with an end cap or a label only (N-terminal biotin on a linker: ahx)
[2] = plain residues with an end cap or a label only (N-terminal biotin on a linker: ttds)

Chain of NOS1, P29475 (P29475 9-101): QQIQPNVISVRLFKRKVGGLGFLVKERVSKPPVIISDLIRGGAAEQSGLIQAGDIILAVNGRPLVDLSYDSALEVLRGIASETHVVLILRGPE

For RNCSTNDSLL [ADRB2, P07550], the pKd (NOS1, P29475; [1]) was “below the threshold”, the pKd (GRIP1_7, Q9Y3R0; [1]) was 3.48 and the pKd (CASK, O14936; [1]) was “below the threshold”. The pKd (LIN7C, Q9NUP9; [1]) was “below the threshold”, the pKd (LAP2, Q96RT1; [1]) was “below the threshold” and the pKd (FRMPD1, Q5SYB0; [1]) was “below the threshold”. The pKd (GOPC, Q9HD26; [1]) was “below the threshold”, the pKd (APBA2_1, Q99767; [1]) was “below the threshold” and the pKd (MAGI2_6, Q86UL8; [1]) was “below the threshold”. For the same binder, the pKd (SHANK1, Q9Y566; [1]) was “below the threshold”, the pKd (DVL3, Q92997; [1]) was “below the threshold” and the pKd (SNTB1, Q13884; [1]) was “below the threshold”. For the same binder, the pKd (FRMPD2_2, Q68DX3; [1]) was “below the threshold”, the pKd (DLG1_3, Q12959; [1]) was “below the threshold” and the pKd (Inadl_1, Q8NI35; [1]) was “below the threshold”. For the same binder, the pKd (APBA1_2, Q02410; [1]) was “below the threshold”, the pKd (LNX1_3, Q8TBB1; [1]) was “below the threshold” and the pKd (GORASP1, Q9BQQ3; [1]) was “below the threshold”. The pKd (MAGI2_4, Q86UL8; [1]) was 3.55, the pKd (SCRIB_2, Q14160; [1]) was “below the threshold” and the pKd (MPDZ_5, O75970; [1]) was “below the threshold”. For the same binder, the pKd (Inadl_5, Q8NI35; [1]) was “below the threshold”, the pKd (FRMPD2_3, Q68DX3; [1]) was “below the threshold” and the pKd (PDZD7_3, Q9H5P4; [1]) was 3.57. The pKd (FRMPD2_1, Q68DX3; [1]) was “below the threshold”, the pKd (DLG4_3, P78352; [1]) was “below the threshold” and the pKd (DLG3_3, Q92796; [1]) was “below the threshold”.

SSSNSEDTEM [NHERF3, Q5T2W1] was tested, and the pKd (NOS1, P29475; [1]) was “below the threshold”, the pKd (GRIP1_7, Q9Y3R0; [1]) was “below the threshold” and the pKd (CASK, O14936; [1]) was “below the threshold”. The pKd (LIN7C, Q9NUP9; [1]) was “below the threshold”, the pKd (LAP2, Q96RT1; [1]) was “below the threshold” and the pKd (FRMPD1, Q5SYB0; [1]) was “below the threshold”. The pKd (GOPC, Q9HD26; [1]) was “below the threshold”, the pKd (APBA2_1, Q99767; [1]) was “below the threshold” and the pKd (MAGI2_6, Q86UL8; [1]) was “below the threshold”. The pKd (SHANK1, Q9Y566; [1]) was “below the threshold”, the pKd (DVL3, Q92997; [1]) was “below the threshold” and the pKd (SNTB1, Q13884; [1]) was “below the threshold”. The pKd (FRMPD2_2, Q68DX3; [1]) was “below the threshold”, the pKd (DLG1_3, Q12959; [1]) was “below the threshold” and the pKd (Inadl_1, Q8NI35; [1]) was “below the threshold”. For the same binder, the pKd (APBA1_2, Q02410; [1]) was “below the threshold”, the pKd (LNX1_3, Q8TBB1; [1]) was “below the threshold” and the pKd (GORASP1, Q9BQQ3; [1]) was “below the threshold”. For the same binder, the pKd (MAGI2_4, Q86UL8; [1]) was “below the threshold”, the pKd (SCRIB_2, Q14160; [1]) was “below the threshold” and the pKd (MPDZ_5, O75970; [1]) was “below the threshold”. The pKd (Inadl_5, Q8NI35; [1]) was “below the threshold”, the pKd (FRMPD2_3, Q68DX3; [1]) was “below the threshold” and the pKd (PDZD7_3, Q9H5P4; [1]) was “below the threshold”. The pKd (FRMPD2_1, Q68DX3; [1]) was “below the threshold”, the pKd (DLG4_3, P78352; [1]) was “below the threshold” and the pKd (DLG3_3, Q92796; [1]) was “below the threshold”.

For SPLHSLETSL [ATP2B1, P20020], the pKd (NOS1, P29475; [2]) was 3.77, the pKd (GRIP1_7, Q9Y3R0; [2]) was 3.58 and the pKd (CASK, O14936; [2]) was “below the threshold”. The pKd (LIN7C, Q9NUP9; [2]) was 4.45, the pKd (LAP2, Q96RT1; [2]) was 3.8 and the pKd (FRMPD1, Q5SYB0; [2]) was “below the threshold”. For the same binder, the pKd (GOPC, Q9HD26; [2]) was 4.13, the pKd (APBA2_1, Q99767; [2]) was “below the threshold” and the pKd (MAGI2_6, Q86UL8; [2]) was 4.24. The pKd (SHANK1, Q9Y566; [2]) was 4.71, the pKd (DVL3, Q92997; [2]) was “below the threshold” and the pKd (SNTB1, Q13884; [2]) was 4.69. The pKd (FRMPD2_2, Q68DX3; [2]) was 3.48, the pKd (DLG1_3, Q12959; [2]) was 4.08 and the pKd (Inadl_1, Q8NI35; [2]) was 3.69. The pKd (APBA1_2, Q02410; [2]) was 3.93, the pKd (LNX1_3, Q8TBB1; [2]) was “below the threshold” and the pKd (GORASP1, Q9BQQ3; [2]) was 3.61. For the same binder, the pKd (MAGI2_4, Q86UL8; [2]) was 3.48, the pKd (SCRIB_2, Q14160; [2]) was 4.27 and the pKd (MPDZ_5, O75970; [2]) was “below the threshold”. The pKd (Inadl_5, Q8NI35; [2]) was “below the threshold”, the pKd (FRMPD2_3, Q68DX3; [2]) was “below the threshold” and the pKd (PDZD7_3, Q9H5P4; [2]) was 4.63. The pKd (FRMPD2_1, Q68DX3; [2]) was “below the threshold”, the pKd (DLG4_3, P78352; [2]) was 4.01 and the pKd (DLG3_3, Q92796; [2]) was 3.97.

DPLTPSRSQL [DGKK, Q5KSL6] was tested, and the pKd (NOS1, P29475; [2]) was “below the threshold”, the pKd (GRIP1_7, Q9Y3R0; [2]) was “below the threshold” and the pKd (CASK, O14936; [2]) was “below the threshold”. The pKd (LIN7C, Q9NUP9; [2]) was “below the threshold”, the pKd (LAP2, Q96RT1; [2]) was “below the threshold” and the pKd (FRMPD1, Q5SYB0; [2]) was 3.73. The pKd (GOPC, Q9HD26; [2]) was “below the threshold”, the pKd (APBA2_1, Q99767; [2]) was “below the threshold” and the pKd (MAGI2_6, Q86UL8; [2]) was “below the threshold”. For the same binder, the pKd (SHANK1, Q9Y566; [2]) was 4.11, the pKd (DVL3, Q92997; [2]) was “below the threshold” and the pKd (SNTB1, Q13884; [2]) was “below the threshold”. For the same binder, the pKd (FRMPD2_2, Q68DX3; [2]) was “below the threshold”, the pKd (DLG1_3, Q12959; [2]) was “below the threshold” and the pKd (Inadl_1, Q8NI35; [2]) was “below the threshold”. The pKd (APBA1_2, Q02410; [2]) was 3.71, the pKd (LNX1_3, Q8TBB1; [2]) was “below the threshold” and the pKd (GORASP1, Q9BQQ3; [2]) was “below the threshold”. The pKd (MAGI2_4, Q86UL8; [2]) was “below the threshold”, the pKd (SCRIB_2, Q14160; [2]) was “below the threshold” and the pKd (MPDZ_5, O75970; [2]) was “below the threshold”. For the same binder, the pKd (Inadl_5, Q8NI35; [2]) was “below the threshold”, the pKd (FRMPD2_3, Q68DX3; [2]) was “below the threshold” and the pKd (PDZD7_3, Q9H5P4; [2]) was “below the threshold”. The pKd (FRMPD2_1, Q68DX3; [2]) was “below the threshold”, the pKd (DLG4_3, P78352; [2]) was “below the threshold” and the pKd (DLG3_3, Q92796; [2]) was “below the threshold”.
